Test system: Escherichia coli TOP10
Test: shrunken log2 fold change of peptide-encoding DNA abundance (4.5 h post-induction vs induction); higher = less antimicrobial activity (less host growth inhibition)
Details: time post-induction: 4.5 h; library: site-saturation at positions 5, 18, 19, 20
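Further: peptides expressed intracellularly from a pBAD plasmid library in pooled LB shake-flask culture, induced with 0.3% L-arabinose, DNA abundance read by NGS, three biological replicates, DESeq2 with apeglm shrinkage.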

Sequence	shrunken log2 fold change
RRIRSRPPRLPRPRPRPHELPRP	-0.101
RRIRDRPPRLPRPRPRPFMNPRP	-0.117
RRIRGRPPRLPRPRPRPMDAPRP	0.322
RRIRVRPPRLPRPRPRPWSWPRP	0.15
RRIRTRPPRLPRPRPRPRPWPRP	0.0956
RRIRYRPPRLPRPRPRPTWFPRP	-0.351
RRIRKRPPRLPRPRPRPPASPRP	0.424
RRIRQRPPRLPRPRPRPYCAPRP	-0.624
RRIRLRPPRLPRPRPRPASNPRP	-0.124
RRIRYRPPRLPRPRPRPWGPPRP	-0.206
RRIRERPPRLPRPRPRPYTTPRP	-0.49
RRIRKRPPRLPRPRPRPGTAPRP	0.625
RRIRPRPPRLPRPRPRPLCKPRP	0.041
RRIRLRPPRLPRPRPRPMSSPRP	0.0128
RRIRIRPPRLPRPRPRPSCGPRP	-0.174
RRIRFRPPRLPRPRPRPRCGPRP	0.114
RRIRHRPPRLPRPRPRPHKIPRP	-0.215
RRIRFRPPRLPRPRPRPLLNPRP	-0.549
RRIRKRPPRLPRPRPRPNDLPRP	-0.054
RRIRSRPPRLPRPRPRPRWIPRP	0.00261
RRIRHRPPRLPRPRPRPPQRPRP	0.248
RRIRWRPPRLPRPRPRPQLVPRP	0.144
RRIRPRPPRLPRPRPRPFWLPRP	0.115

Sequence	shrunken log2 fold change
RRIRMRPPRLPRPRPRPLRYPRP	0.856
RRIRKRPPRLPRPRPRPHISPRP	-0.00759
RRIRTRPPRLPRPRPRPLGVPRP	-0.194
RRIRARPPRLPRPRPRPILLPRP	-0.293
RRIRSRPPRLPRPRPRPKSCPRP	0.61
RRIRGRPPRLPRPRPRPEMQPRP	1.41
RRIRVRPPRLPRPRPRPEARPRP	0.389
RRIRCRPPRLPRPRPRPCNTPRP	-0.306
RRIRERPPRLPRPRPRPMWGPRP	-0.016
RRIRQRPPRLPRPRPRPCHMPRP	-0.519
RRIRGRPPRLPRPRPRPYNLPRP	-0.487
RRIRTRPPRLPRPRPRPYWIPRP	-0.0377
RRIRFRPPRLPRPRPRPFRGPRP	-0.224
RRIRKRPPRLPRPRPRPRKEPRP	0.015
RRIRARPPRLPRPRPRPQEWPRP	0.00318
RRIRPRPPRLPRPRPRPTQYPRP	0.287
RRIRPRPPRLPRPRPRPENPPRP	0.0677
RRIRHRPPRLPRPRPRPFTGPRP	-0.171
RRIRTRPPRLPRPRPRPFTWPRP	-0.308
RRIRCRPPRLPRPRPRPNYWPRP	-0.326
RRIRKRPPRLPRPRPRPVETPRP	0.416
RRIRERPPRLPRPRPRPDGTPRP	0.0123
RRIRTRPPRLPRPRPRPQTQPRP	-0.0967

Sequence	shrunken log2 fold change
RRIRCRPPRLPRPRPRPIVVPRP	-0.34
RRIRTRPPRLPRPRPRPKQVPRP	-0.0584
RRIRIRPPRLPRPRPRPYEYPRP	-0.0772
RRIRHRPPRLPRPRPRPCSFPRP	-0.309
RRIRQRPPRLPRPRPRPHIHPRP	-0.476
RRIRARPPRLPRPRPRPMRRPRP	0.2
RRIRPRPPRLPRPRPRPWGCPRP	-0.0706
RRIRSRPPRLPRPRPRPKPVPRP	0.0648
RRIRHRPPRLPRPRPRPQEMPRP	-0.0755
RRIRKRPPRLPRPRPRPQSLPRP	-0.017
RRIRDRPPRLPRPRPRPHLLPRP	0.0253
RRIRNRPPRLPRPRPRPATFPRP	-0.441
RRIRLRPPRLPRPRPRPMEPPRP	0.101
RRIRFRPPRLPRPRPRPEQSPRP	0.0672
RRIRQRPPRLPRPRPRPEPRPRP	0.508
RRIRLRPPRLPRPRPRPWCIPRP	0.0272
RRIRERPPRLPRPRPRPWHYPRP	-0.067
RRIRWRPPRLPRPRPRPKNNPRP	-0.136
RRIRTRPPRLPRPRPRPIWYPRP	-0.601
RRIRERPPRLPRPRPRPDCLPRP	-0.428
RRIRWRPPRLPRPRPRPEVLPRP	0.167
RRIRLRPPRLPRPRPRPGDQPRP	0.0619
RRIRRRPPRLPRPRPRPNVNPRP	-0.0627

Sequence	shrunken log2 fold change
RRIRRRPPRLPRPRPRPHWVPRP	0.0391
RRIRYRPPRLPRPRPRPRHYPRP	-0.974
RRIRDRPPRLPRPRPRPSGHPRP	1.17
RRIRVRPPRLPRPRPRPPCNPRP	-0.356
RRIRMRPPRLPRPRPRPWDCPRP	0.00902
RRIRVRPPRLPRPRPRPFHSPRP	0.0749
RRIRERPPRLPRPRPRPHTFPRP	-0.14
RRIRTRPPRLPRPRPRPPICPRP	0.0623
RRIRNRPPRLPRPRPRPQGMPRP	-0.0261
RRIRFRPPRLPRPRPRPFAEPRP	-0.348
RRIRSRPPRLPRPRPRPGITPRP	-0.151
RRIRIRPPRLPRPRPRPPRIPRP	0.333
RRIRMRPPRLPRPRPRPTYGPRP	-0.00932
RRIRHRPPRLPRPRPRPRYGPRP	-0.629
RRIRYRPPRLPRPRPRPSCGPRP	-0.184
RRIRMRPPRLPRPRPRPTANPRP	0.921
RRIRPRPPRLPRPRPRPQQQPRP	-0.17
RRIRLRPPRLPRPRPRPQEVPRP	0.0641
RRIRLRPPRLPRPRPRPDYSPRP	0.14
RRIRQRPPRLPRPRPRPCQHPRP	0.0738
RRIRCRPPRLPRPRPRPYPLPRP	-0.191
RRIRQRPPRLPRPRPRPWLLPRP	-0.151
